According to patent publication US20190367615A1 (BEIJING HANMI PHARM, published 2019):

B1: AH00291 (antibody, human IgG4 S228P, kappa)
heavy: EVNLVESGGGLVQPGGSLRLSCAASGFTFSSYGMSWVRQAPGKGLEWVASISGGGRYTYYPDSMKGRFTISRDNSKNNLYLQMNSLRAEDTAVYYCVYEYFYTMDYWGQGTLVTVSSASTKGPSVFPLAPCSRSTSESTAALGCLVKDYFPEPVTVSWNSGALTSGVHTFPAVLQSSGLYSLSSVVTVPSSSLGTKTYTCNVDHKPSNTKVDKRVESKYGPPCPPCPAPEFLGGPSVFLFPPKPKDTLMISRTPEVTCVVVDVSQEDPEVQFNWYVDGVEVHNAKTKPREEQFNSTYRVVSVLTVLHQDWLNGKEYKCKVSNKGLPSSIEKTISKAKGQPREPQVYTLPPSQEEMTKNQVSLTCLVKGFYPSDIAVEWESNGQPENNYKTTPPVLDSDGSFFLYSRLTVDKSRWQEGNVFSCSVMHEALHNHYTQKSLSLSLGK
light: DIVLTQSPATLSLSPGERATLSCRANQSISNNLHWYQQKPGQAPRLLIRFASQSISGIPARFSGSGSGTDFTLTISSLEPEDFAVYFCQQSDNWPLTFGGGTKVEIKRTVAAPSVFIFPPSDEQLKSGTASVVCLLNNFYPREAKVQWKVDNALQSGNSQESVTEQDSKDSTYSLSSTLTLSKADYEKHKVYACEVTHQGLSSPVTKSFNRGEC
notes: also called humanized anti-human PD-1 monoclonal antibody AH00291
B2: AH00290 (antibody, human IgG4 S228P, kappa, V domains shown)
VH: EVNLVESGGGLVQPGGSLRLSCAASGFTFSSYGMSWVRQAPGKGLEWVSSISGGGRYTYYPDSMKGRFTISRDNSKNTLYLQMNSLRAEDTAVYYCVYEYFYTMDYWGQGTLVTVSS
VL: DIVLTQSPATLSLSPGERATLSCRANQSISNNLHWYQQKPGQAPRLLIRFASQSISGIPARFSGSGSGTDFTLTISSLEPEDFAVYFCQQSDNWPLTFGGGTKVEIKR
notes: also called humanized anti-human PD-1 monoclonal antibody AH00290
B3: AH00291-N26Q (antibody, human IgG4 S228P, kappa)
heavy: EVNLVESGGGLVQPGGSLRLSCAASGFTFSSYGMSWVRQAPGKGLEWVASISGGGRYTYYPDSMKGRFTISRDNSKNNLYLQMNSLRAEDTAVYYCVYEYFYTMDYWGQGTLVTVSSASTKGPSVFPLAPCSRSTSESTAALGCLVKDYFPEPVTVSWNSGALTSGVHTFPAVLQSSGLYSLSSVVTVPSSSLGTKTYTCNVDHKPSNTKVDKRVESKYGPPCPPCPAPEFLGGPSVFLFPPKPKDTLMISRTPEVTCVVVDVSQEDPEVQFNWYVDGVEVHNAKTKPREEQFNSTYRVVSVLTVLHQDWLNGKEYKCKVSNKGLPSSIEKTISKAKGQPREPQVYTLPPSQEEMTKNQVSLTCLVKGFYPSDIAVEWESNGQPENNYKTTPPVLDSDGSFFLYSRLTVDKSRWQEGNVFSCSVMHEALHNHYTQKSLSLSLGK
light: DIVLTQSPATLSLSPGERATLSCRAQQSISNNLHWYQQKPGQAPRLLIRFASQSISGIPARFSGSGSGTDFTLTISSLEPEDFAVYFCQQSDNWPLTFGGGTKVEIKRTVAAPSVFIFPPSDEQLKSGTASVVCLLNNFYPREAKVQWKVDNALQSGNSQESVTEQDSKDSTYSLSSTLTLSKADYEKHKVYACEVTHQGLSSPVTKSFNRGEC
B4: AH00291-N26S (antibody, human IgG4 S228P, kappa)
heavy: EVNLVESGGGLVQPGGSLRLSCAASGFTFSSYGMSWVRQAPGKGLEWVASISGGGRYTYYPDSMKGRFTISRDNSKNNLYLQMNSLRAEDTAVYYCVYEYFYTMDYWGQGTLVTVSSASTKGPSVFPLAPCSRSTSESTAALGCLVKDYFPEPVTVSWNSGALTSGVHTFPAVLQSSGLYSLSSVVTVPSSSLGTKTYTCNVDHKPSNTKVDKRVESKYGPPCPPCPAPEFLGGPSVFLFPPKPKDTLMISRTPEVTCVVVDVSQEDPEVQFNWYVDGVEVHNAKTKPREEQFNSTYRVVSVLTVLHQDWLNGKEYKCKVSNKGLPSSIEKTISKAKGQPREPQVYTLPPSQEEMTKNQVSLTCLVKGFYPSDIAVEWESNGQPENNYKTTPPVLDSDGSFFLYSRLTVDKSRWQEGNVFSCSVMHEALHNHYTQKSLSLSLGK
light: DIVLTQSPATLSLSPGERATLSCRASQSISNNLHWYQQKPGQAPRLLIRFASQSISGIPARFSGSGSGTDFTLTISSLEPEDFAVYFCQQSDNWPLTFGGGTKVEIKRTVAAPSVFIFPPSDEQLKSGTASVVCLLNNFYPREAKVQWKVDNALQSGNSQESVTEQDSKDSTYSLSSTLTLSKADYEKHKVYACEVTHQGLSSPVTKSFNRGEC
B5: AH00291-S28A (antibody, human IgG4 S228P, kappa)
heavy: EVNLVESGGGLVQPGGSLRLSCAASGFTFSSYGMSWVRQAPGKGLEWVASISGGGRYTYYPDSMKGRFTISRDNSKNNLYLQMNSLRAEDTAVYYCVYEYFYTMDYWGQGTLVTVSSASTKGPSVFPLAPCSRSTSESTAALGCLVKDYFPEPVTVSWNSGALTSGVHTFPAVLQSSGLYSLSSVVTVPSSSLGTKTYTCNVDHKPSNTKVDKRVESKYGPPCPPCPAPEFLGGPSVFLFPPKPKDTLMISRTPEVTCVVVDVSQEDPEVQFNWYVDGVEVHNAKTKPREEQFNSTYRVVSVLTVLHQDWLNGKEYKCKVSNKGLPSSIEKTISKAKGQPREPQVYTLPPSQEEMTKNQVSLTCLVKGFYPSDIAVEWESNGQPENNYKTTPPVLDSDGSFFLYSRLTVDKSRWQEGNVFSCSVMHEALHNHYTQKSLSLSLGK
light: DIVLTQSPATLSLSPGERATLSCRANQAISNNLHWYQQKPGQAPRLLIRFASQSISGIPARFSGSGSGTDFTLTISSLEPEDFAVYFCQQSDNWPLTFGGGTKVEIKRTVAAPSVFIFPPSDEQLKSGTASVVCLLNNFYPREAKVQWKVDNALQSGNSQESVTEQDSKDSTYSLSSTLTLSKADYEKHKVYACEVTHQGLSSPVTKSFNRGEC
B6: AH00293 (antibody, human IgG4 S228P, kappa, V domains shown)
VH: EVNLVESGGGLVQPGGSLRLSCAASGFTFSSYGMSWVRQAPGKGLEWVASISGGGRYTYYPDSMKGRFTISRDNSKNNLYLQMNSLRAEDTAVYYCVYEYFYTMDYWGQGTLVTVSS
VL: DIVLTQSPATLSLSPGERATLSCRANQSISNNLHWYQQKPGQAPRLLIRFASQSISGIPARFSGSGSGTDFTLTISSLEPEDFAVYYCQQSDNWPLTFGGGTKVEIKR
notes: also called humanized anti-human PD-1 monoclonal antibody AH00293
B7: AH00294 (antibody, human IgG4 S228P, kappa)
heavy: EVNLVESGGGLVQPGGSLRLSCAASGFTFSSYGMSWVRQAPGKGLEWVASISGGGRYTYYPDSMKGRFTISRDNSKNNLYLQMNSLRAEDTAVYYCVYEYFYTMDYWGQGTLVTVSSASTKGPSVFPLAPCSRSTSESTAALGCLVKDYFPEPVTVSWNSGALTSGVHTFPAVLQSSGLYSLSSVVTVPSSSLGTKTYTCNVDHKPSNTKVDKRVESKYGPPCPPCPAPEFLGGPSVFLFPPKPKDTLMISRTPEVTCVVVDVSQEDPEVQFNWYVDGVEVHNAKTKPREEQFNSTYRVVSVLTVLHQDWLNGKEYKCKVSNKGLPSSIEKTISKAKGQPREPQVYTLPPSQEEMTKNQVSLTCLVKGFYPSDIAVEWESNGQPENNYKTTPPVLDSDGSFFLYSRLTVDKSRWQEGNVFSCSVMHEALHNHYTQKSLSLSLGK
light: DVVLTQSPATLSLSPGERATLSCRANQSISNNLHWYQQKPGQAPRLLIRFASQSISGIPARFSGSGSGTDFTLTISSLEPEDFAVYFCQQSDNWPLTFGGGTKVEIKRTVAAPSVFIFPPSDEQLKSGTASVVCLLNNFYPREAKVQWKVDNALQSGNSQESVTEQDSKDSTYSLSSTLTLSKADYEKHKVYACEVTHQGLSSPVTKSFNRGEC
notes: also called humanized anti-human PD-1 monoclonal antibody AH00294
B8: AH00294-N26Q (antibody, human IgG4 S228P, kappa)
heavy: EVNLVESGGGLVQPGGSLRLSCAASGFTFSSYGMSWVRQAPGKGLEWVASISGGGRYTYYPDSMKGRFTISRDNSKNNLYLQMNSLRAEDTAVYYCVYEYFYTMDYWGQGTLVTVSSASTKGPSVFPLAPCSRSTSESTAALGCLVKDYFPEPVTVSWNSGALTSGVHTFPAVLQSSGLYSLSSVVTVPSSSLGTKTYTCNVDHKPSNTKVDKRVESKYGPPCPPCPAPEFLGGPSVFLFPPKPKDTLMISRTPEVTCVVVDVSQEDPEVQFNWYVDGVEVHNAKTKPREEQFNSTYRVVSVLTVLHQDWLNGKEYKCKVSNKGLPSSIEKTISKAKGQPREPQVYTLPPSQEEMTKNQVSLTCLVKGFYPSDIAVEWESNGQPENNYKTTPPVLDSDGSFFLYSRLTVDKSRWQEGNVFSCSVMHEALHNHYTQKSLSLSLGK
light: DVVLTQSPATLSLSPGERATLSCRAQQSISNNLHWYQQKPGQAPRLLIRFASQSISGIPARFSGSGSGTDFTLTISSLEPEDFAVYFCQQSDNWPLTFGGGTKVEIKRTVAAPSVFIFPPSDEQLKSGTASVVCLLNNFYPREAKVQWKVDNALQSGNSQESVTEQDSKDSTYSLSSTLTLSKADYEKHKVYACEVTHQGLSSPVTKSFNRGEC
B9: AH00294-N26S (antibody, human IgG4 S228P, kappa)
heavy: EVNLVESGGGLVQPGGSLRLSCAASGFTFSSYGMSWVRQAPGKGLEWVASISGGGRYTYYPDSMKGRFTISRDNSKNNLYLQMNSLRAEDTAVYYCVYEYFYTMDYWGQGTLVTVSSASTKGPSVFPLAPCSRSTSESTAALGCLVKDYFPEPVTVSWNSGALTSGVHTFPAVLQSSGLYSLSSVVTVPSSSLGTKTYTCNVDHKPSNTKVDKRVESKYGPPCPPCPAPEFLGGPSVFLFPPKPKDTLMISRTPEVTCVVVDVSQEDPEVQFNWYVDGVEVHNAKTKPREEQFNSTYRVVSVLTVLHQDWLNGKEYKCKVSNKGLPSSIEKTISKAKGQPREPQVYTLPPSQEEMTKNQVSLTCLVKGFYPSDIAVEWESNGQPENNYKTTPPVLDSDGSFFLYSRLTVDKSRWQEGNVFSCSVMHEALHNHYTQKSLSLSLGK
light: DVVLTQSPATLSLSPGERATLSCRASQSISNNLHWYQQKPGQAPRLLIRFASQSISGIPARFSGSGSGTDFTLTISSLEPEDFAVYFCQQSDNWPLTFGGGTKVEIKRTVAAPSVFIFPPSDEQLKSGTASVVCLLNNFYPREAKVQWKVDNALQSGNSQESVTEQDSKDSTYSLSSTLTLSKADYEKHKVYACEVTHQGLSSPVTKSFNRGEC
B10: AH00294-S28A (antibody, human IgG4 S228P, kappa)
heavy: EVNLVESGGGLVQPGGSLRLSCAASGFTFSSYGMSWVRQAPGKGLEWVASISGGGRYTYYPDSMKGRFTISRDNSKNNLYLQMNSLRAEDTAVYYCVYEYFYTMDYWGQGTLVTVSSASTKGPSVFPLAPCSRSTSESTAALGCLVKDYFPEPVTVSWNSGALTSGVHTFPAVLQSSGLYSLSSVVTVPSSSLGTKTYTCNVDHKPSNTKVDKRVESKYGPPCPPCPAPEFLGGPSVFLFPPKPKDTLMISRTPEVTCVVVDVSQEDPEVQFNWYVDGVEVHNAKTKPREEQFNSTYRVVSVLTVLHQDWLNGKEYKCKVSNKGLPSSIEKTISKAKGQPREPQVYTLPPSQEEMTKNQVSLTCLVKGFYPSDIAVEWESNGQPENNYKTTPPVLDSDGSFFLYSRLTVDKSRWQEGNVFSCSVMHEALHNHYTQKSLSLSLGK
light: DVVLTQSPATLSLSPGERATLSCRANQAISNNLHWYQQKPGQAPRLLIRFASQSISGIPARFSGSGSGTDFTLTISSLEPEDFAVYFCQQSDNWPLTFGGGTKVEIKRTVAAPSVFIFPPSDEQLKSGTASVVCLLNNFYPREAKVQWKVDNALQSGNSQESVTEQDSKDSTYSLSSTLTLSKADYEKHKVYACEVTHQGLSSPVTKSFNRGEC
B11: AH00295 (antibody, human IgG4 S228P, kappa)
heavy: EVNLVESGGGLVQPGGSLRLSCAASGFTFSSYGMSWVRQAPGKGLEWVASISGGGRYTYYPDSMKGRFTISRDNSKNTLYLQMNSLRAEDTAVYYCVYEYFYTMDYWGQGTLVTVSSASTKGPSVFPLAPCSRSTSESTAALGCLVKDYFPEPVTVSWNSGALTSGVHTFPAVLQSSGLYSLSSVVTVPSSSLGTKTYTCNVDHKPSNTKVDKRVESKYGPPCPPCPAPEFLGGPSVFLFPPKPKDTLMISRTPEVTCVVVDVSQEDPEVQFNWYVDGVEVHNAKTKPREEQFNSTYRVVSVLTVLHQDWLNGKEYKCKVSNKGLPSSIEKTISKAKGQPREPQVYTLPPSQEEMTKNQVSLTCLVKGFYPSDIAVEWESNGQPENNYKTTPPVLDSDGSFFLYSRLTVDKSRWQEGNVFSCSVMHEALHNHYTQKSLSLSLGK
light: EVVLTQSPATLSLSPGERATLSCRANQSISNNLHWYQQKPGQAPRLLIRFASQSISGIPARFSGSGSGTDFTLTISSLEPEDFAVYFCQQSDNWPLTFGGGTKVEIKRTVAAPSVFIFPPSDEQLKSGTASVVCLLNNFYPREAKVQWKVDNALQSGNSQESVTEQDSKDSTYSLSSTLTLSKADYEKHKVYACEVTHQGLSSPVTKSFNRGEC
notes: also called humanized anti-human PD-1 monoclonal antibody AH00295
B12: AH00296 (antibody, human IgG4 S228P, kappa)
heavy: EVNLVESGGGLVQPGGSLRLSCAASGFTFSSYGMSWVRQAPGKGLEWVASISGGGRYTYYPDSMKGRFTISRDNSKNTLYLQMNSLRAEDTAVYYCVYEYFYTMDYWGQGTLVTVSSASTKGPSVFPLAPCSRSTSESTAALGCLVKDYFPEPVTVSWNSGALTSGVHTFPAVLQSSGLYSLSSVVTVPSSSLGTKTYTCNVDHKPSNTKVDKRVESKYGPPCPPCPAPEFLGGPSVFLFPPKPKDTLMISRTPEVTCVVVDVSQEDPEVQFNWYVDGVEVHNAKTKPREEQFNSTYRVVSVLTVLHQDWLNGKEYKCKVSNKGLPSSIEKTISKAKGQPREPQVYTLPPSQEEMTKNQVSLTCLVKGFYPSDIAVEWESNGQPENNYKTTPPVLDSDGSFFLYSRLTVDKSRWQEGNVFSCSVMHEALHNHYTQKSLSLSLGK
light: DIVLTQSPATLSLSPGERATLSCRANQSISNNLHWYQQKPGQAPRLLIRFASQSISGIPARFSGSGSGTDFTLTISSLEPEDFAVYFCQQSDNWPLTFGGGTKVEIKRTVAAPSVFIFPPSDEQLKSGTASVVCLLNNFYPREAKVQWKVDNALQSGNSQESVTEQDSKDSTYSLSSTLTLSKADYEKHKVYACEVTHQGLSSPVTKSFNRGEC
notes: also called humanized anti-human PD-1 monoclonal antibody AH00296
B13: AH00296-N26Q (antibody, human IgG4 S228P, kappa, V domains shown)
VH: EVNLVESGGGLVQPGGSLRLSCAASGFTFSSYGMSWVRQAPGKGLEWVASISGGGRYTYYPDSMKGRFTISRDNSKNTLYLQMNSLRAEDTAVYYCVYEYFYTMDYWGQGTLVTVSS
VL: DIVLTQSPATLSLSPGERATLSCRAQQSISNNLHWYQQKPGQAPRLLIRFASQSISGIPARFSGSGSGTDFTLTISSLEPEDFAVYFCQQSDNWPLTFGGGTKVEIKR
B14: AH00296-N26S (antibody, human IgG4 S228P, kappa, V domains shown)
VH: EVNLVESGGGLVQPGGSLRLSCAASGFTFSSYGMSWVRQAPGKGLEWVASISGGGRYTYYPDSMKGRFTISRDNSKNTLYLQMNSLRAEDTAVYYCVYEYFYTMDYWGQGTLVTVSS
VL: DIVLTQSPATLSLSPGERATLSCRASQSISNNLHWYQQKPGQAPRLLIRFASQSISGIPARFSGSGSGTDFTLTISSLEPEDFAVYFCQQSDNWPLTFGGGTKVEIKR
notes: also called AII00296-N26S
B15: AH00296-S28A (antibody, human IgG4 S228P, kappa, V domains shown)
VH: EVNLVESGGGLVQPGGSLRLSCAASGFTFSSYGMSWVRQAPGKGLEWVASISGGGRYTYYPDSMKGRFTISRDNSKNTLYLQMNSLRAEDTAVYYCVYEYFYTMDYWGQGTLVTVSS
VL: DIVLTQSPATLSLSPGERATLSCRANQAISNNLHWYQQKPGQAPRLLIRFASQSISGIPARFSGSGSGTDFTLTISSLEPEDFAVYFCQQSDNWPLTFGGGTKVEIKR
B16: AH00298 (antibody, human IgG4 S228P, kappa)
heavy: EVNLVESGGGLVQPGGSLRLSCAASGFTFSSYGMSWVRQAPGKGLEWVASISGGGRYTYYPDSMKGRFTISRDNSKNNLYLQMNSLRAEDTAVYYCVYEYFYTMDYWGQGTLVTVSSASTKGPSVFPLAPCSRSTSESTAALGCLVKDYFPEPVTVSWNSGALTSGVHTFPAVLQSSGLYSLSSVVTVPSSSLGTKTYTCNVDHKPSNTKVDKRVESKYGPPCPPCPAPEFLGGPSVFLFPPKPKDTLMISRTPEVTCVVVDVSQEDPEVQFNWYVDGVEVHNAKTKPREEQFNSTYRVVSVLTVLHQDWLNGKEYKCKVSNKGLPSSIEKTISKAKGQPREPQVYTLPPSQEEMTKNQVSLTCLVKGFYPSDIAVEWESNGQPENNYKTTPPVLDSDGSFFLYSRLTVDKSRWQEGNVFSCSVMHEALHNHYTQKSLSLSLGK
light: EVVLTQSPATLSLSPGERATLSCRANQSISNNLHWYQQKPGQAPRLLIRFASQSISGIPARFSGSGSGTDFTLTISSLEPEDFAVYFCQQSDNWPLTFGGGTKVEIKRTVAAPSVFIFPPSDEQLKSGTASVVCLLNNFYPREAKVQWKVDNALQSGNSQESVTEQDSKDSTYSLSSTLTLSKADYEKHKVYACEVTHQGLSSPVTKSFNRGEC
notes: also called humanized anti-human PD-1 monoclonal antibody AH00298
B17: BMIII (antibody, human IgG4 S228P, kappa, V domains shown)
VH: EVNLVESGGGLVQPGGSLRLSCAASGFTFSSYGMSWVRQTPGKGLEWVASISGGGRYTYYPDSMKGRFTISRDNSKNNLYLQMNSLRAEDTAVYYCVYEYFYTMDYWGQGTLVTVSS
VL: DVVLTQSPATLSVSPGERVTLSCRANQSISNNLHWYQQKPGQSPRLLIRFASQSISGIPARFSGSGSGTDFTLTISSVEPEDFGVYFCQQSDNWPLTFGGGTKLEIKR
B18: BMIV (antibody, human IgG4 S228P, kappa, V domains shown)
VH: EVNLVESGGGLVQPGGSLRLSCAASGFTFSSYGMSWVRQTPGKGLEWVASISGGGRYTYYPDSMKGRFTISRDNSKNNLHLQMSSLRAEDTAVYYCVYEYFYTMDYWGQGTLVTVSS
VL: DVVLTQSPATLSVSPGERVTLSCRANQSISNNLHWYQQKSHQSPRLLIRFASQSISGIPARFSGSGSGTDFTLTISSVETEDFGVYFCQQSDNWPLTFGGGTKLEIKR

How the values were obtained:
[1] = molecular target: T1, Recombinant human PD-1 (Sino Biological Inc., Catalog Number 10377-H08H) (human, UniProt Q15116 25-167); assay: ELISA, human PD-1 coated
T1 construct: Bought protein; also called antigen PD-1
T1 sequence (Q15116 25-167 limits assumed): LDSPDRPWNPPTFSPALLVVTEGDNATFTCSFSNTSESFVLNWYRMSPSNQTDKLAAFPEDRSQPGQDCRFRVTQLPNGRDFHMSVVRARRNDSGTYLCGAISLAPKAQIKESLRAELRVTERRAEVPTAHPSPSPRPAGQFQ
Method: Recombinant human PD-1 (purchased from Sino Biological Inc.) was coated on a 96-well high-absorbing ELISA plate with a carbonate buffer solution with pH 9.6, the coating concentration was 1 μg/mL, the coating amount was 100 μL per well, and the coating was carried out at 4° C. overnight. The plate was washed five times with PBST and blocked with 300 μL/well of PBST containing 1% BSA, and then incubated at 25° C. for 1 hour. The plate was washed five times with PBST. […] The plate was washed five times with PBST. Then, horseradish peroxidase-labeled anti-human IgG antibody (Chemicon, Catalog Number AP309P) 1:2000 diluted in PBST containing 1% BSA was added, 100 μL per well, incubated at 25° C. for 1 hour. The plate was washed five times with PBST. 100 μL/well of colorimetric substrate TMB was added and incubated at room temperature for 10 minutes. Color development was terminated by adding 100 μL/well of 1 M H₂SO₄. The absorbance at 450 nm was read on a microplate reader.

[2] = molecular target: T2, Recombinant human PD-1-Fc (human, UniProt Q15116 25-167, limits assumed); assay: competition ELISA, PD-1-Fc coated, competitor biotin-labeled PD-L1
T2 construct: also called recombinant human PD-1-Fc protein; not shown: Fc part
T2 sequence (Q15116 25-167 limits assumed): as above
Method: Recombinant human PD-1-Fc was coated on a 96-well high-absorbing ELISA plate with a carbonate buffer solution with pH 9.6, the coating concentration was 1 μg/mL, the coating amount was 100 μL per well, and the coating was carried at 4° C. out overnight. The plate was washed five times with PBST and blocked with 300 μL/well of PBST containing 1% BSA and incubated at 25° C. for 1 hour. The plate was washed five times with PBST. The positive control and the anti-human PD-1 antibody sample were added, 50 μL per well. […] The plate was washed five times with PBST. Then, Streptavidin-HRP (BD Pharmingen, Catalog Number 554066) 1:1000 diluted in PBST containing 1% BSA was added, 100 μL per well, incubated at 25° C. for 1 hour. The plate was washed five times with PBST. 100 μL/well of colorimetric substrate TMB was added and incubated at room temperature for 10 minutes. Color development was terminated by adding 100 μL/well of 1 M H₂SO₄. The absorbance at 450 nm was read on a microplate reader.

| Binder | EC50 [1] [nM] | IC50 [2] [nM] |
| --- | --- | --- |
| B1 | 0.025 | 1.1 |
| B2 | 0.024 | 1.09 |
| B3 | 0.046 | 1.57 |
| B4 | 0.039 | 1.43 |
| B5 | 0.042 | 1.36 |
| B6 | 0.026 | 1.2 |
| B7 | 0.032 | 1.35 |
| B8 | 0.041 | 1.49 |
| B9 | 0.043 | 1.48 |
| B10 | 0.047 | 1.46 |
| B11 | 0.025 | 1.19 |
| B12 | 0.027 | 1.21 |
| B13 | 0.044 | 1.27 |
| B14 | 0.037 | 1.07 |
| B15 | 0.048 | 1.75 |
| B16 | 0.028 | 1.22 |
| B17 | 0.034 | 1.2 |
| B18 | 0.028 | 1.3 |
